Reference: patent US20100120171A1

Tests used:
[1] = target: Standard VE-cadherin (standard solutions run with the Bender MedSystems BMS253 kit) (UniProt P33151); experiment: Bender BMS253 ELISA kit; standard VE-cadherin at 2.5 ng/mL; second replicate
[2] = target: Standard VE-cadherin (standard solutions run with the Bender MedSystems BMS253 kit) (UniProt P33151); experiment: Bender BMS253 ELISA kit; standard VE-cadherin at 1.25 ng/mL; OD minus OD at 0 ng/mL
[3] = target: Standard VE-cadherin (standard solutions run with the Bender MedSystems BMS253 kit) (UniProt P33151); experiment: Bender BMS253 ELISA kit; standard VE-cadherin at 0.16 ng/mL; first replicate
[4] = target: Standard VE-cadherin (standard solutions run with the Bender MedSystems BMS253 kit) (UniProt P33151); experiment: Bender BMS253 ELISA kit; standard VE-cadherin at 0.63 ng/mL; OD minus OD at 0 ng/mL
[5] = target: Standard VE-cadherin (standard solutions run with the Bender MedSystems BMS253 kit) (UniProt P33151); experiment: Bender BMS253 ELISA kit; standard VE-cadherin at 0.32 ng/mL; second replicate
[6] = target: Standard VE-cadherin (standard solutions run with the Bender MedSystems BMS253 kit) (UniProt P33151); experiment: Bender BMS253 ELISA kit; standard VE-cadherin at 10 ng/mL; first replicate
[7] = target: Standard VE-cadherin (standard solutions run with the Bender MedSystems BMS253 kit) (UniProt P33151); experiment: Bender BMS253 ELISA kit; standard VE-cadherin at 0.63 ng/mL; first replicate
[8] = target: Standard VE-cadherin (standard solutions run with the Bender MedSystems BMS253 kit) (UniProt P33151); experiment: Bender BMS253 ELISA kit; standard VE-cadherin at 0.63 ng/mL; second replicate
[9] = target: Standard VE-cadherin (standard solutions run with the Bender MedSystems BMS253 kit) (UniProt P33151); experiment: Bender BMS253 ELISA kit; standard VE-cadherin at 5 ng/mL
[10] = target: Standard VE-cadherin (standard solutions run with the Bender MedSystems BMS253 kit) (UniProt P33151); experiment: Bender BMS253 ELISA kit; standard VE-cadherin at 0.32 ng/mL; first replicate
[11] = target: Standard VE-cadherin (standard solutions run with the Bender MedSystems BMS253 kit) (UniProt P33151); experiment: Bender BMS253 ELISA kit; standard VE-cadherin at 10 ng/mL; OD minus OD at 0 ng/mL
[12] = target: Standard VE-cadherin (standard solutions run with the Bender MedSystems BMS253 kit) (UniProt P33151); experiment: Bender BMS253 ELISA kit; standard VE-cadherin at 0.16 ng/mL; OD minus OD at 0 ng/mL
[13] = target: Standard VE-cadherin (standard solutions run with the Bender MedSystems BMS253 kit) (UniProt P33151); experiment: Bender BMS253 ELISA kit; standard VE-cadherin at 2.5 ng/mL
[14] = target: Standard VE-cadherin (standard solutions run with the Bender MedSystems BMS253 kit) (UniProt P33151); experiment: Bender BMS253 ELISA kit; standard VE-cadherin at 0.16 ng/mL; second replicate
[15] = target: Standard VE-cadherin (standard solutions run with the Bender MedSystems BMS253 kit) (UniProt P33151); experiment: Bender BMS253 ELISA kit; standard VE-cadherin at 2.5 ng/mL; first replicate
[16] = target: Standard VE-cadherin (standard solutions run with the Bender MedSystems BMS253 kit) (UniProt P33151); experiment: Bender BMS253 ELISA kit; standard VE-cadherin at 1.25 ng/mL; second replicate
[17] = target: Standard VE-cadherin (standard solutions run with the Bender MedSystems BMS253 kit) (UniProt P33151); experiment: Bender BMS253 ELISA kit; standard VE-cadherin at 1.25 ng/mL
[18] = target: Standard VE-cadherin (standard solutions run with the Bender MedSystems BMS253 kit) (UniProt P33151); experiment: Bender BMS253 ELISA kit; standard VE-cadherin at 0.63 ng/mL
[19] = target: Standard VE-cadherin (standard solutions run with the Bender MedSystems BMS253 kit) (UniProt P33151); experiment: Bender BMS253 ELISA kit; standard VE-cadherin at 1.25 ng/mL; first replicate
[20] = target: Standard VE-cadherin (standard solutions run with the Bender MedSystems BMS253 kit) (UniProt P33151); experiment: Bender BMS253 ELISA kit; standard VE-cadherin at 5 ng/mL; second replicate
[21] = target: Standard VE-cadherin (standard solutions run with the Bender MedSystems BMS253 kit) (UniProt P33151); experiment: Bender BMS253 ELISA kit; standard VE-cadherin at 10 ng/mL; second replicate
[22] = target: Standard VE-cadherin (standard solutions run with the Bender MedSystems BMS253 kit) (UniProt P33151); experiment: Bender BMS253 ELISA kit; standard VE-cadherin at 10 ng/mL
[23] = target: Standard VE-cadherin (standard solutions run with the Bender MedSystems BMS253 kit) (UniProt P33151); experiment: Bender BMS253 ELISA kit; standard VE-cadherin at 5 ng/mL; OD minus OD at 0 ng/mL
[24] = target: Standard VE-cadherin (standard solutions run with the Bender MedSystems BMS253 kit) (UniProt P33151); experiment: Bender BMS253 ELISA kit; standard VE-cadherin at 0.16 ng/mL
[25] = target: Standard VE-cadherin (standard solutions run with the Bender MedSystems BMS253 kit) (UniProt P33151); experiment: Bender BMS253 ELISA kit; standard VE-cadherin at 2.5 ng/mL; OD minus OD at 0 ng/mL
[26] = target: Standard VE-cadherin (standard solutions run with the Bender MedSystems BMS253 kit) (UniProt P33151); experiment: Bender BMS253 ELISA kit; standard VE-cadherin at 5 ng/mL; first replicate
[27] = target: Standard VE-cadherin (standard solutions run with the Bender MedSystems BMS253 kit) (UniProt P33151); experiment: Bender BMS253 ELISA kit; standard VE-cadherin at 0.32 ng/mL
[28] = target: Standard VE-cadherin (standard solutions run with the Bender MedSystems BMS253 kit) (UniProt P33151); experiment: Bender BMS253 ELISA kit; standard VE-cadherin at 0.32 ng/mL; OD minus OD at 0 ng/mL

UniProt P33151, sequence (P33151 48-593 limits assumed): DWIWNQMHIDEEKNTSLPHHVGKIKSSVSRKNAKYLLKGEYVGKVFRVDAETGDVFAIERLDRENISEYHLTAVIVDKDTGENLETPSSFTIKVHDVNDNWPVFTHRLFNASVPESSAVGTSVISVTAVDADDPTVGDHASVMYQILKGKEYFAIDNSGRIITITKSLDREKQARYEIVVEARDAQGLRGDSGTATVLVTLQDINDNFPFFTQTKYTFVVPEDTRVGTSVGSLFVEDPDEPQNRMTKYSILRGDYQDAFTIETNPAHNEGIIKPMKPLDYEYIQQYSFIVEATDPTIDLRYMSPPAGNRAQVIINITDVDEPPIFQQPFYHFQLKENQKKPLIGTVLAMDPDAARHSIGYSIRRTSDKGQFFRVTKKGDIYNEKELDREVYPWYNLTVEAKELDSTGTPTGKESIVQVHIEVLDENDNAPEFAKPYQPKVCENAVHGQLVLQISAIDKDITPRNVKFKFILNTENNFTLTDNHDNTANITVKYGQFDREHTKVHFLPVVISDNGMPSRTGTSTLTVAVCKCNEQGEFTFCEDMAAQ

OD [1]: 0.621 OD | corr. mean (OD) [2]: 0.305 OD | OD [3]: 0.145 OD | corr. mean (OD) [4]: 0.136 OD | OD [5]: 0.181 OD | OD [6]: 2.41 OD | OD [7]: 0.265 OD | OD [8]: 0.222 OD | mean OD [9]: 1.17 OD | OD [10]: 0.258 OD | corr. mean (OD) [11]: 2.52 OD | corr. mean (OD) [12]: 0.046 OD | mean OD [13]: 0.616 OD | OD [14]: 0.162 OD | OD [15]: 0.61 OD | OD [16]: 0.454 OD | mean OD [17]: 0.413 OD | mean OD [18]: 0.244 OD | OD [19]: 0.371 OD | OD [20]: 1.05 OD | OD [21]: 2.85 OD | mean OD [22]: 2.63 OD | corr. mean (OD) [23]: 1.06 OD | mean OD [24]: 0.154 OD | corr. mean (OD) [25]: 0.508 OD | OD [26]: 1.29 OD | mean OD [27]: 0.22 OD | corr. mean (OD) [28]: 0.112 OD
Substance: mAb provided in the human soluble VE-cadherin ELISA kit (Bender MedSystems, reference BMS253) (antibody)
